# Test results as given in patent US20080248034A1 (MORPHOTEK, published 2008).
# T1: murine TEM-1 (in mouse 2H11 cells) (mouse, UniProt Q91V98 18-765)
# T1 construct: Endogenous protein in lysate of mouse 2H11 cells, on a Western blot; also called murine endosialin
# T1 sequence: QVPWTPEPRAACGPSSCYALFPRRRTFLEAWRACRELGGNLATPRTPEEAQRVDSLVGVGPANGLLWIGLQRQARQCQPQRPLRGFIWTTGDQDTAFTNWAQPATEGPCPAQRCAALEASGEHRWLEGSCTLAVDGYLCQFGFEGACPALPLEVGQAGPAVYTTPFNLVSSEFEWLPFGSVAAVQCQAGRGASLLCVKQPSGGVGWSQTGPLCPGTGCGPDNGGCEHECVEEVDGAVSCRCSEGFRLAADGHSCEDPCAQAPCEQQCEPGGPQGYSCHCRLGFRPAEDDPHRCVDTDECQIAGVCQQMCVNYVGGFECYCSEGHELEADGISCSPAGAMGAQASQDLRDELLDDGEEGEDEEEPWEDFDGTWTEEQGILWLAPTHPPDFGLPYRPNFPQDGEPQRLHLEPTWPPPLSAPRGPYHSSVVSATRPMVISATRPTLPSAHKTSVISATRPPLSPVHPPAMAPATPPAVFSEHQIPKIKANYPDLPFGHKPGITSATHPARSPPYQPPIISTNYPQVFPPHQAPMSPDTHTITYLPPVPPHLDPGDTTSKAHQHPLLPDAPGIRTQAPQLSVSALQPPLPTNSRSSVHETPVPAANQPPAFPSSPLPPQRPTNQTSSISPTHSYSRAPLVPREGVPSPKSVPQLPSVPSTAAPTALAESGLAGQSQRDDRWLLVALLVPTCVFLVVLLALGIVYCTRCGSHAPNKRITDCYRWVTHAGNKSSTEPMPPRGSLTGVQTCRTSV
# B1: human mesothelin (other, UniProt Q13421 296-598, looked up)
# chain: EVEKTACPSGKKAREIDESLIFYKKWELEACVDAALLATQMDRVNAIPFTYEQLDVLKHKLDELYPQGYPESVIQHLGYLFLKMSPEDIRKWNVTSLETLKALLEVNKGHEMSPQVATLIDRFVKGRGQLDKDTLDTLTAFYPGYLCSLSPEELSSVPPSSIWAVRPQDLDTCDPRQLDVLYPKARLAFQNMNGSEYFVKIQSFLGGAPTEDLKALSQQNVSMDLATFMKLRTDAVLPLTVAEVQKLLGPHVEGLKAEERHRPVRDWILRQRQDDLDTLGLGLQGGIPNGYLVLDLSMQEALS
# B2: ovalbumin (OVA) (other, UniProt P01012 2-386, looked up)
# chain: GSIGAASMEFCFDVFKELKVHHANENIFYCPIAIMSALAMVYLGAKDSTRTQINKVVRFDKLPGFGDSIEAQCGTSVNVHSSLRDILNQITKPNDVYSFSLASRLYAEERYPILPEYLQCVKELYRGGLEPINFQTAADQARELINSWVESQTNGIIRNVLQPSSVDSQTAMVLVNAIVFKGLWEKAFKDEDTQAMPFRVTEQESKPVQMMYQIGLFRVASMASEKMKILELPFASGTMSMLVLLPDEVSGLEQLESIINFEKLTEWTSSNVMEERKIKVYLPRMKMEEKYNLTSVLMAMGITDVFSSSANLSGISSAESLKISQAVHAAHAEINEAGREVVGSAEAGVDAASVSEEFRADHPFLFCIKHIATNAVLFFGRCVSP
# B3: Fc-TEM1 (soluble recombinant endosialin: full-length TEM1 extracellular domain fused to monomeric murine IgG2b Fc) (Fc fusion, human)
# chain: QDPWAAEPRAACGPSSCYALFPRRRTFLEAWRACRELGGDLATPRTPEEAQRVDSLVGAGPASRLLWIGLQRQARQCQLQRPLRGFTWTTGDQDTAFTNWAQPASGGPCPAQRCVALEASGEHRWLEGSCTLAVDGYLCQFGFEGACPALQDEAGQAGPAVYTTPFHLVSTEFEWLPFGSVAAVQCQAGRGASLLCVKQPEGGVGWSRAGPLCLGTGCSPDNGGCEHECVEEVDGHVSCRCTEGFRLAADGRSCEDPCAQAPCEQQCEPGGPQGYSCHCRLGFRPAEDDPHRCVDTDECQIAGVCQQMCVNYVGGFECYCSEGHELEADGISCSPAGAMGAQASQDLGDELLDDGEDEEDEDEAWKAFNGGWTEMPGILWMEPTQPPDFALAYRPSFPEDREPQIPYPEPTWPPPLSAPRVPYHSSVLSVTRPVVVSATHPTLPSAHQPPVIPATHPALSRDHQIPVIAANYPDLPSAYQPGILSVSHSAQPPAHQPPMISTKYPELFPAHQSPMFPDTRVAGTQTTTHLPGIPPNHAPLVTTLGAQLPPQAPDALVLRTQATQLPIIPTAQPSLTTTSRSPVSPAHQISVPAATQPAALPTLLPSQSPTNQTSPISPTHPHSKAPQIPREDGPSPKLALWLPSPAPTAAPTALGEAGLAEHSQRDDRWLDDDD
# notes: extracellular domain; Monomeric secreted fusion protein made in CHO cells; also called TEM1-Fcγ; not shown: murine IgG2b Fcγ domain (hinge through CH3), modified: the four cysteine residues responsible for inter-heavy chain disu
# B4: recombinant human fibronectin fragment 2 (Fn2) (other)
# chain: SSSGPVEVFITETPSQPNSHPIQWNAPQPSHISKYILRWRPKNSVGRWKEATIPGHLNSYTIKGLKPGVVYEGQLISIQQYGHQEVTRFDFTTTSTSTPVTSNTVTGETTPFSPLVATSESVTEITASSFVVSWVSASDTVSGFRVEYELSEEGDEPQYLDLPSTATSVNIPDLLPGRKYIVNVYQISEDGEQSLILSTSQTTAPDAPPDPTVDQVDDTSIVVRWSRPQAPITGYRIVYSPSVEGSSTELNLPETANSVTLSDLQPGVQYNITIYAVEENQESTPVVIQQETTGTPRSDTVPSPRDLQFVEVTDVKVTIMWTPPESAVTGYRVDVIPVNLPGEHGQRLPISRNTFAEVTGLSPGVTYYFKVFAVSHGRESKPLTAQQTTKLDAPTNLQFVNETDSTVLVRWTPPRAQITGYRLTVGLTRRGQPRQYNVGPSVSKYPLRNLQPASEYTVSLVAIKGNQESPKATGVFTTLQPGSSIPPYNTEVTETTIVITWTPAPRIGFKLGVRPSQGGEAPREVTSDSGSIVVSGLTPGVEYVYTIQVLRDGQERDAPIVNKVVTPLSPPTNLHLEANPDTGVLTVSWERSTTPDITGYRITTTPTNGQQGNSLEEVVHADQSSCTFDNLSPGLEYNVSVYTVKDDKESVPISDTIIP
# notes: Bought (R&D Systems)
# B5: recombinant human fibronectin fragment 4 (Fn4) (other)
# chain: VTDATETTITISWRTKTETITGFQVDAVPANGQTPIQRTIKPDVRSYTITGLQPGTDYKIYLYTLNDNARSSPVVIDASTAIDAPSNLRFLATTPNSLLVSWQPPRARITGYIIKYEKPGSPPREVVPRPRPGVTEATITGLEPGTEYTIYVIALKNNQKSEPLIGRKKTDELPQLVTLPHPNLHGPEILDVPSTVQKTPFVTHPGYDTGNGIQLPGTSGQQPSVGQQMIFEEHGFRRTTPPTTATPIRHRPRPYPPNVGEEIQIGHIPREDVDYHLYPHGPGLNPNASTGQEALSQTTISWAPFQDTSEYIISCHPVGTDEEPLQFRVPGTSTSATLTGLTRGATYNIIVEALKDQQRHKVREEVVTVGNSVNEGLNQPTDDSCFDPYTVSHYAVGDEWERMSESGFKLLCQCLGFGSGHFRCDSSRWCHDNGVNYKIGEKWDRQGENGQMMSCTCLGNGKGEFKCDPHEATCYDDGKTYHVGEQWQKEYLGAICSCTCFGGQRGWRCDNCRRPGGEPSPEGTTGQSYNQYSQRYHQRTNTNVNCPIECFMPLDVQADREDSRE
# notes: Bought (R&D Systems)
# B6: M4.1 (humanized antibody to human endosialin) (antibody, human IgG1, kappa)
# heavy: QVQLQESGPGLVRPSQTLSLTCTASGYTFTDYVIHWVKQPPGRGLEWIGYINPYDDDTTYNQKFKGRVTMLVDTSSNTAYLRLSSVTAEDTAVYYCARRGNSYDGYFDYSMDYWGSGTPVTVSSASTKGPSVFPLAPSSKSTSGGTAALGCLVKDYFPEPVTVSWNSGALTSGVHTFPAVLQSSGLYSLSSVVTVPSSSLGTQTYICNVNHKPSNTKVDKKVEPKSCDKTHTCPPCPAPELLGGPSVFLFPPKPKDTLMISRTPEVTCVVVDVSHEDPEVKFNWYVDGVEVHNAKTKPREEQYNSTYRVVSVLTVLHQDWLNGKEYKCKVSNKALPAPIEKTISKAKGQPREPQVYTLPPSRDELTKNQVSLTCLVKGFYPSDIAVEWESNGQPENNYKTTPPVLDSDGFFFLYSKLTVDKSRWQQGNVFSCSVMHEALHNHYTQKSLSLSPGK
# light: DIQMTQSPSSLSASVGDRVTITCRASQNVGTAVAWLQQTPGKAPKLLIYSASNRYTGVPSRFSGSGSGTDYTFTISSLQPEDIATYYCQQYTNYPMYTFGQGTKVQIKRTVAAPSVFIFPPSDEQLKSGTASVVCLLNNFYPREAKVQWKVDNALQSGNSQESVTEQDSKDSTYSLSSTLTLSKADYEKHKVYACEVTHQGLSSPVTKSFNRGEC
# notes: also called antibody M4.1
# How the values were obtained:
# [1] = molecular target: B3; test: antigen-specific ELISA, coated at 0.2 ug/ml (FIG. 4B)
# [2] = molecular target: B3; test: antigen-specific ELISA, coated at 2 ug/ml (FIG. 4B)
# [3] = molecular target: T2, 120 kDa fibronectin fragment containing the cell attachment domain (UniProt P02751-1 722-1635, limits assumed); test: ELISA on coated FN fragments (FIG. 7A)
# T2 construct: domain: 120 kDa fragment containing the cell attachment domain; Bought fragment; also called the 120 kDa fragment; 120 kDa cell attachment FN-fragment
# T2 sequence (P02751 other isoform, or with tags, fused parts or gaps limits assumed): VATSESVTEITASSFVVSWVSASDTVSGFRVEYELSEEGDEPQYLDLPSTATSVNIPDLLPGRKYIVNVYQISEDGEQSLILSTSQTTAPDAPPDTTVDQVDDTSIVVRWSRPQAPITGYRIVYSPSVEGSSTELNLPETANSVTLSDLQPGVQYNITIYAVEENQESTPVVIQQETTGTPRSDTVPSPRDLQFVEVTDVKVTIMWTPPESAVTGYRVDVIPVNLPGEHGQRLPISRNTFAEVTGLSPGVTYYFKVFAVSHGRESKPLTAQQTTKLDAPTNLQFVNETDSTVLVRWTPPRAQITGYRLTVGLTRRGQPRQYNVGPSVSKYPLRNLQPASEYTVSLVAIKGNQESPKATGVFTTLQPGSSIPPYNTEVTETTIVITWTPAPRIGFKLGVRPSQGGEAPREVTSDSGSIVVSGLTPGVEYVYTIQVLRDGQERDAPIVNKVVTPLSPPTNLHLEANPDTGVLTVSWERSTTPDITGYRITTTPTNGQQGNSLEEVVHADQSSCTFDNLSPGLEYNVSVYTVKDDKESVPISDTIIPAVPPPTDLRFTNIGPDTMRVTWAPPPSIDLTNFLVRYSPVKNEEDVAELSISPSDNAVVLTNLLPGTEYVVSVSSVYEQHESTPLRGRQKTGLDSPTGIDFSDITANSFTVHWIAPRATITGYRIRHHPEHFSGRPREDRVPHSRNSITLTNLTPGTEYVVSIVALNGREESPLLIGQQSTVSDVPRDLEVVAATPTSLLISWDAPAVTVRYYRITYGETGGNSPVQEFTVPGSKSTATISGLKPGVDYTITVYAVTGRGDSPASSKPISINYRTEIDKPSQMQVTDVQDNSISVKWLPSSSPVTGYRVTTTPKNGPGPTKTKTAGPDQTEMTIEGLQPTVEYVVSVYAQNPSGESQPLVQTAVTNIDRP
# [4] = molecular target: B3; test: ELISA on coated FN fragments (FIG. 7A)
# [5] = molecular target: T1, murine TEM-1 (in mouse 2H11 cells); test: Western blot of cell lysates (FIG. 15)
binder,measurement,setting,value
B1,binding result,[1],"no binding (tested: 5, 10, 50 ug/ml)"
B2,binding result,[2],"no binding (tested: 5, 10, 50 ug/ml)"
B3,binding result,[3],no binding (tested: 1.25 ug/ml)
B4,binding result,[4],no binding (tested: 1.25 ug/ml)
B5,binding result,[4],no binding (tested: 1.25 ug/ml)
B6,binding result,[5],no binding (tested: 3.3 ug/mL)
